One may read the EC50 as the midpoint of the concentration-response curve. A low value points to a more potent agent. In general, Kd refers to the equilibrium constant for the complex coming apart. By koff is commonly meant a measure of how fast the partners let go of each other. Low readings indicate slow dissociation, high ones fast dissociation. Usually kon stands for a measure of how fast the partners come together. A low value points to slow association.

Assay [1] addresses T1, Human B7-H4-Fc (Human B7H4 ECD, Fc_6His) (human).
T1 construct: also called FcHis6 tagged human B7-H4
T1 sequence (Q7Z7D3 whole entry, looked up): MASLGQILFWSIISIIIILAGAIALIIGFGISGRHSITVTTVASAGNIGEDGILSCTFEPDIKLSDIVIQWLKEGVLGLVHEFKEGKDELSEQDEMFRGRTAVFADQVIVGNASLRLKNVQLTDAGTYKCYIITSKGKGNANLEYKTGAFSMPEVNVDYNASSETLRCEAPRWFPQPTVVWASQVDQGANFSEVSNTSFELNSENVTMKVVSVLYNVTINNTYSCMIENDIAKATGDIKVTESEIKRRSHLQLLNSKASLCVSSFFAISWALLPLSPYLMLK
In words: HTRF binding, human IgG1.

In assay [2] the target is T2, Cyno B7-H4-Fc (Cyno B7H4 ECD, FcTM_6His) (cynomolgus monkey).
T2 construct: extracellular domain; also called cynomolgus B7-H4-Fc
The experiment in a line: HTRF binding, human IgG1. (In general: In TR-FRET formats the signal depends on donor and acceptor labels being close together.)

Assay [3] deals with T3, Murine B7-H4-Fc (Mouse B7H4 ECD, Fc_6His) (mouse, UniProt Q7TSP5 25-257).
T3 construct: extracellular domain; also called mouse B7-H4-Fc; FcHis6 tagged murine B7-H4
T3 sequence (Q7TSP5 whole entry, looked up): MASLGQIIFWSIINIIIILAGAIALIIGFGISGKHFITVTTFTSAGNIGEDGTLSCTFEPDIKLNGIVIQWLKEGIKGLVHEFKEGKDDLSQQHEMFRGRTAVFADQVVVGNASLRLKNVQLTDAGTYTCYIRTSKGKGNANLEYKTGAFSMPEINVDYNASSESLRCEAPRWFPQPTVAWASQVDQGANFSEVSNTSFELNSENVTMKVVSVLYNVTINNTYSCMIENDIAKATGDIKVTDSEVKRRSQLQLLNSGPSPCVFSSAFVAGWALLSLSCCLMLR
The experiment in a line: HTRF binding, human IgG1.

For assay [4], the target named is T4, Human B7-H4 ECD-Flag-His10 (monomeric) (human, UniProt Q7Z7D3 25-259).
T4 construct: Minimally biotinylated for KinExA; also called hB7H4-ECD-Flag-His10; B7-H4-FLAG
T4 sequence: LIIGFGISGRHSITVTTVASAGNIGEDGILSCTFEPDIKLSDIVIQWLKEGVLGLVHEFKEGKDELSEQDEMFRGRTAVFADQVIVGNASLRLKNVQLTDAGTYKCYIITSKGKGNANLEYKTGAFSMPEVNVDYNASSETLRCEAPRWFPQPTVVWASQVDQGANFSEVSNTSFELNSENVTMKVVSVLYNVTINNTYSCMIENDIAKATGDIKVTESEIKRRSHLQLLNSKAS
In words: Octet BLI, hIgG1 on Protein G (n = 1). (In BLI a coated tip is dipped into the sample, and binding shifts an interference pattern.)

Assay [5] deals with T5, Murine B7-H4 ECD-Flag-His10 (monomeric) (mouse, UniProt Q7TSP5 25-257).
T5 construct: extracellular domain; also called FlagHis10 murine B7-H4
T5 sequence (looked up): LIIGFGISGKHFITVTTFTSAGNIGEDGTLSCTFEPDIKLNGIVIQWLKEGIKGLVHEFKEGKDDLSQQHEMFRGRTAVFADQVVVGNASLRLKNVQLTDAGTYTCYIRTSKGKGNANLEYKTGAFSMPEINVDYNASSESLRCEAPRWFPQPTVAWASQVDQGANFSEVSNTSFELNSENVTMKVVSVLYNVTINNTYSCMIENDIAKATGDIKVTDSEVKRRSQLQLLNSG
The experiment in a line: Octet BLI, hIgG1 on Protein G (n = 1).

Assay [6] has as its target T6, Human B7H4 ECD (SV), splice variant, 10His_FLAG (human).
T6 construct: also called B7-H4-SV
In words: Octet BLI, hIgG1 on Protein G (n = 1).

B1: ZY0EO5-E07 human IgG1 (antibody, V domains shown)
VH: QVQLQESGPGLVKPSQTLSLTCTVSGGSISSGGYYWSWIRQHPGKGLEWIGNIYYSGSTYYNPSLKSRVTISVDTSKNQFSLKLSSVTAADTAVYYCAREKALASVIPSGYENYYVVDVWGQGTTVTVSS
VL: DIQLTQSPSFLSASVGGRVTITCWASQGIAGYLAWYQQKPGKAPKLLIYAASTLQSGVPSRFSGSGSGTEFTLTISSLQPEDFATYYCQHLNSYPLTFGGGTKVEIK
notes: also called ZY0E05-E07; E05-E07
For B1, the EC50 in assay [1] is 0.19 nM; in assay [2] it was 0.18 nM; in assay [3] it was 0.21 nM. Also, the Max was found to be 1710 in assay [1], 1360 in assay [2] and 1300 in assay [3]. For the same molecule, the figures for the Kd in assay [4], in assay [5] and in assay [6] were 14.6 nM, 23.2 nM and 182 nM, respectively. In addition, the koff in assay [4] came to 0.000318 s⁻¹; in assay [5] it was 0.000415 s⁻¹; in assay [6], 0.000528 s⁻¹. Also, the kon came out at 21700 M⁻¹ s⁻¹ in assay [4], 17900 M⁻¹ s⁻¹ in assay [5] and 2910 M⁻¹ s⁻¹ in assay [6].

B2: ZY0EOB-F05 human IgG1 (antibody, V domains shown)
VH: QVQLQESGPGLVKPSQTLSLTCTVSDGSISSGGYYWSWIRQHPGKGLEWIGNIYYSGSTYYNPSLKSRVTISVDTSKNQFSLKLNSVTAADTAVYYCATEKALATVTPSGYENYYTVDVWGQGTTVTVSS
VL: DIQLTQSPSFLSASVGDRVTITCWASQGISSYLAWYQQKPGKAPKLLIYAASTLQSGVPSRFSGSGSGTEFTLTISSLQPEDFATYYCQHLNSYPLTFGGGTKVEIK
Take B2: the EC50 was 0.15 nM in assay [1], 0.14 nM in assay [2] and 0.19 nM in assay [3]. Further, the Max was found to be 1820 in assay [1], 1480 in assay [2] and 1320 in assay [3]. Moreover, the results for the Kd in assay [4], in assay [5] and in assay [6] were 11.7 nM, 19.8 nM and 127 nM, respectively. For the same molecule, the results for the koff in assay [4], in assay [5] and in assay [6] were 0.000362 s⁻¹, 0.000493 s⁻¹ and 0.000598 s⁻¹, respectively. Also, the kon is 31000 M⁻¹ s⁻¹ in assay [4], 24900 M⁻¹ s⁻¹ in assay [5] and 4710 M⁻¹ s⁻¹ in assay [6].

B3: ZY0EP0-C07 human IgG1 (antibody, V domains shown)
VH: QVQLVESGGVLVKPGGSLRLSCAASGFTLSDYYMSWIRQAPGMGLEWVSYISSSGSTIYYTDSVKGRFTISRDSAKNSLYLQMNSLRAEDTAVYYCARDGVGFDYWGQGTLVTVSS
VL: EIVLTQSPGTLSLFPGERATLSCRASQSVSSSYLAWYQQKPGQSPRLLIYAASSRATGIPDRFSGSGSGTDFTLTISRLEPEDFAVYYCQQYGSSPLYTFGQGTKLEIK
notes: also called ZY0EPO-C07
In assay [1], B3 had an EC50 of 0.3 nM and a Max of 1220. In assay [2], this molecule displayed an EC50 of 0.33 nM and a Max of 946. In addition, in assay [3], the EC50 came out at 0.18 nM and the Max was found to be 1320. Also, in assay [4], the Kd is 7 nM, the off-rate constant (koff) is 0.000363 s⁻¹ and the kon turned out to be 48800 M⁻¹ s⁻¹. In assay [5], this molecule came in with a Kd of 9 nM, a koff of 0.000551 s⁻¹ and a kon of 60200 M⁻¹ s⁻¹.

B4: ZY0EPQ-E02 human IgG1 (antibody, V domains shown)
VH: QVQLQQWGAGLLKPSETLSLTCAVYGGSFSGYYWNWIRQPPGKGLEWIGEINHSGSTNYNPSLKSRVTILVDTSKNQFSLKLSSVTAADTAVYYCARNLYNWNLDSWGQGTLVTVSS
VL: DIQMTQSPSSLSASVGDRVTITCRASQGIRNDLGWYQQKPGRAPKRLIYVASSLQSGVPSRFSGSGSGTEFTLTISSLQPEDFATYYCLQHNSYPRTFGQGTKVEIK
With B4, the figures for the EC50 in assay [1], in assay [2] and in assay [3] were 0.38 nM, 0.33 nM and 1.49 nM, respectively. Moreover, the Max is 1130 in assay [1], 987 in assay [2] and 279 in assay [3]. Besides, the Kd in assay [4] turned out to be 24 nM; in assay [5], 498 nM; in assay [6] it was 1030 nM. Further, the koff in assay [4] stood at 0.00208 s⁻¹; in assay [5], 0.0498 s⁻¹; in assay [6] it was 0.00252 s⁻¹. The kon in assay [4] amounted to 85900 M⁻¹ s⁻¹; in assay [5] it was 100000 M⁻¹ s⁻¹; in assay [6], 2460 M⁻¹ s⁻¹.

B5: ZY0EQD-E02 human IgG1 (antibody, V domains shown)
VH: QVQLQQWGAGLLKPSETLSLTCAVYGGSFSGYYWNWIRQPPGKGLEWIGEINHSGSTSYNPSLKSRVTISVDTSKNQFSLKLSSVTAADTAVYYCARVLYNWNVDSWGQGTLVTVSS
VL: DIQMTQSPSSLSASVGDRVTITCRASQDIRNDVGWYQQKPGKAPKRLIYAASRLQSGVPSRFSGSGSGTEFTLTISSLQPEDFATYYCLQHNSYPRTFGQGTKVEIK
Regarding B5, the results for the EC50 in assay [1], in assay [2] and in assay [3] were 0.35 nM, 0.28 nM and 1.4 nM, respectively. Further, the Max in assay [1] is 1240; in assay [2], 1130; in assay [3], 167. Moreover, the Kd was 14.9 nM in assay [4], 625 nM in assay [5] and 834 nM in assay [6]. For the same molecule, the figures for the koff in assay [4], in assay [5] and in assay [6] were 0.00321 s⁻¹, 0.213 s⁻¹ and 0.00349 s⁻¹, respectively. Further, the kon came out at 216000 M⁻¹ s⁻¹ in assay [4], 341000 M⁻¹ s⁻¹ in assay [5] and 4190 M⁻¹ s⁻¹ in assay [6].

(Values after patent US20240239894A1 (AstraZeneca / MedImmune, published 2024).)
